Results taken from publication PMC10188367, “Improved cytosine base editors generated from TadA variants” (Nature Biotechnology, 2023).
Where a chain is given by its changes, count along the chain named. Names may count otherwise.

What was measured:
[1] = target: the molecule itself; test: crystal structure; TadA*8.20 (0.15 mM) with 0.22 mM 13-nt ssDNA containing d8Az; PEG 3,350, ammonium acetate, Tris pH 8.5, 20 °C
[2] = target: the molecule itself; test: crystal structure; TADAC-1.19 (0.3 mM) without ssDNA; PEG 3,350, ammonium citrate tribasic pH 7.0, 20 °C
[3] = target: the molecule itself; test: crystal structure; TADAC-1.14 (0.18 mM) without ssDNA; ammonium sulfate, HEPES pH 7.5, 20 °C
[4] = target: the molecule itself; test: crystal structure; TADAC-1.17 (0.15 mM) with 0.22 mM 13-nt ssDNA containing d8Az; PEG 3,350, Tacsimate pH 6, 20 °C

B1: TadA*8.20 (enzyme, E. coli)
chain: MSEVEFSHEYWMRHALTLAKRARDEREVPVGAVLVLNNRVIGEGWNRAIGLHDPTAHAEIMALRQGGLVMQNYRLYDATLYSTFEPCVMCAGAMIHSRIGRVVFGVRNAKTGAAGSLMDVLHHPGMNHRVEITEGILADECAALLCRFFRMPRRVFNAQKKAQSSTD
notes: E. coli tRNA adenosine deaminase TadA, laboratory-evolved variant TadA*8.20 of ABE8.20-m; 167 residues; Crystallised with a 13-nt ssDNA containing 2-deoxy-8-azanebularine; zinc enzyme; also called deaminase of ABE8.20-m; ABE8.20 TadA*; source: E. coli BL21 Star (DE3), purified (Ni-NTA, Ulp1 cleavage, reverse Ni-NTA, heparin, SEC); not shown: His, N-terminal, cleaved; SUMO, N-terminal, cleaved
stoichiometry N [1]: 2

B2: TADAC-1.19 (enzyme, E. coli)
chain: B1 chain with E27G, I49N
notes: E. coli TadA variant: TadA*8.20 with E27G and I49N relative to TadA*8.20; 167 residues; the rows below are written against wild-type TadA; Crystallised without ssDNA; also called TADAC-T1.19; source: E. coli BL21, purified as described for TadA*8.20; not shown: His, N-terminal, cleaved; SUMO, N-terminal, cleaved
stoichiometry N [2]: 2

B3: TADAC-1.14 (enzyme, E. coli)
chain: B1 chain with S2H, I49K, Y76I, G112H
notes: E. coli TadA variant: TadA*8.20 with S2H, I49K, Y76I and G112H relative to TadA*8.20; Y76I brings position 76 back to the wild-type residue; 167 residues; the rows below are written against wild-type TadA; Crystallised without ssDNA; also called deaminase of CABE-T1.14; source: E. coli BL21 Star (DE3), purified (Ni-NTA, heparin, SEC; Ulp1 tag cleavage and reverse Ni-NTA omitted); not shown: …
stoichiometry N [3]: 2

B4: TADAC-1.17 (enzyme, E. coli)
chain: B1 chain with T17A, A48G, S82T, A142E
notes: E. coli TadA variant: TadA*8.20 with T17A, A48G, S82T and A142E relative to TadA*8.20; 167 residues; the rows below are written against wild-type TadA; Crystallised with a 13-nt ssDNA containing 2-deoxy-8-azanebularine; also called deaminase of CABE-T1.17; source: E. coli BL21, purified as described for TadA*8.20; not shown: His, N-terminal, cleaved; SUMO, N-terminal, cleaved
stoichiometry N [4]: 2
